Data taken from patent US7262177B2, “Conjugates of glycosylated/galactosylated peptide, bifunctional linker, and nucleotidic monomers/polymers, and related compositions and methods of use” (priority 2000, dated 2007).
Several values for one entry are separate records, joined by “and”; a condition that tells them apart may be missing. Identical values can stand only once.

Tests used:
Hep G2 cells [1] = experiment: Inhibition of Hep G2 cellular proliferation (cell counting), 1-mer conjugates; format: cell-based, human
Procedure: Hep G2 cells were seeded into a 48-well plate in RPMI supplemented with 10% FCS at a density of 5×10^4 cells/well. Cells were then allowed to incubate at 37° C., 95% RH, 5% CO2 for 24 hrs. After this incubation period, the maintainence medium was aspirated and cells were treated with various concentrations of neoglycoconjugate in 200 μl of RPMI supplemented with 10% FCS. Control wells were treated with 200 μl of RPMI+10% FCS alone. At 0, 24, 48, 72 and 96 hrs, six wells for each condition were washed twice with 0.5 ml of DPBS and treated with 0.5 ml of trypsin (0.25%; prepared in HBSS with 1.0 mM EDTA). Cell number for each condition were determined a using a Coulter electronic cell counter. In all cases, the extent of inhibition of proliferation increased as a function of time. […] Therefore, the type of linkage that conjugates the nucleotide analog to YEE(ahGalNAc)3 influences the ability to inhibit proliferation.

TS [2] = target: T1, TS (Mus musculus, UniProt P07607); experiment: TS activity in liver of xenografted mice; format: in vivo, CD-1 nude mice; conditions: treated
T1 construct: from tissue; host or cells: liver of CD-1 nude mice
Procedure: (§1) Initial effects of po 1-mer treatment were noticed after about 5 weeks. Overall, however, tumors continued to grow after this point, but at a slower rate than the control. For instance, at 8 weeks post po 1-mer treatment, the average tumor weight of xenografted human hepatomas in nude CD-1 mice was about 7 g, whereas the average tumor weight of the saline control was about 15 g. Histological analysis was performed after 8 weeks in order to compare the tumors of the control cohort with the tumors of po 1-mer-treated nude mice. […] This weight loss may then be due to the tumor burden, rather than the therapeutic treatment, and was continued through week 8.
(§2) After the treatment was completed, tumors were analyzed both histologically and for TS activity. […] Therefore, it can be deduced that increasing the dose of po 1-mer increased the efficacy without increasing systemic toxicity.

[3] = Serum stability of po 1-mer conjugate, HPLC method (a), column 1; format: in vitro ADME; conditions: 37° C.; for Average Peak area / Trial Peak area: human serum
Procedure: (§3) Studies were carried out at physiological conditions. The analyses were accomplished using reversed-phase HPLC and PAGE methods. The raw data are presented in table format (Tables 1, 2 and 3). The serum half-life calculated is t1/2=1/k (0.693), derived from the [A]=[A0]e^−kt, where [A0] is the original amount of substrate, [A] is the measured substrate level, t is time (min), and k is the first-order rate constant.
(a) Reaction Conditions: 50 μl of human serum were added to 24 nmoles of HPLC purified po 1-mer Conjugate and incubated at 37° C. for allotted time periods (0 min, 60 min, 180 min, 360 min). Column 1: flow 1.0 ml/min, Rainin MicroSorb C18 reversed-phase column HPLC gradient: 100% NH4OAc for 10 min, then 0→100% CH3CN in 25 min. (0.1 M NH4OAc) (Table 1).

TS [4] = target: T2, TS (Homo sapiens, UniProt P04818); experiment: TS activity in tumor of xenografted mice; format: in vivo, CD-1 nude mice; conditions: treated
T2 construct: from tissue; host or cells: subcutaneous Hep G2 xenograft tumour from CD-1 nude mice
Procedure: as §1, §2

[5] = Serum stability of 35S labeled po 1-mer conjugate, PAGE analysis; format: in vitro ADME; conditions: human serum, 37° C.
Procedure: as §3
Reaction Conditions: 2 μl of human serum were added to 200,000 cpm of dry ^35S labeled po 1-mer conjugate. Radiolabeled conjugate was incubated at 37° C. in the presence of this serum for the allotted time periods (15 min, 30 min, 60 min, 120 min, 240 min). The reaction mixture was diluted with 2 μl of H2O, then 4 μl of loading buffer. The degradation pattern was observed through autoradiography of a 20% polyacylamide gel (0.75 mm) run at 800 V for 90 min. Bands were quantified through the use of a Fujix BAS 2000 Phosphorimager (Table 3).

Hep G2 cells [6] = experiment: Cellular uptake of 5FU 1-mer conjugates by Hep G2 cells; format: cell-based, human
Procedure: Hep G2 cells were passaged into 2 cm^2 wells and grown in RPMI 1640 medium, which was supplemented with L-glutamine (10-040, CV) to a density of 0.3×10^6 to 0.4×10^6 cells per well (48-well cluster plate, Costar, Cambridge, Mass.). […] Then, an aliquot of the medium was saved for scintillation counting and the remainder of the medium aspirated from the well. The cells were washed with D-PBS (2×0.5 ml), treated with 0.25% trypsin (37° C., 2 minutes; trypsin prepared in HBSS with 1.0 mM EDTA) and suspended in fresh growth medium containing 10% FCS. The suspended cells were layered over silicon oil (0.5 ml) in a 1.7 ml conical microcentrifuge tube and pelleted by centrifugation at 14,000 rpm (12,000 g) for 30 seconds. The supernatant was carefully decanted and the cell pellet was lysed with 100 μl of a solution containing 0.5% NP 40, 100 mM sodium chloride, 14 mM Tris/HCl and 30% acetonitrile. The amount of radioactivity, and by inference the amount of neoglycoconjugate or oligomer associated with the cell lysate, was determined by scintillation counting.

T2 sequence (P04818 2-313 limits assumed): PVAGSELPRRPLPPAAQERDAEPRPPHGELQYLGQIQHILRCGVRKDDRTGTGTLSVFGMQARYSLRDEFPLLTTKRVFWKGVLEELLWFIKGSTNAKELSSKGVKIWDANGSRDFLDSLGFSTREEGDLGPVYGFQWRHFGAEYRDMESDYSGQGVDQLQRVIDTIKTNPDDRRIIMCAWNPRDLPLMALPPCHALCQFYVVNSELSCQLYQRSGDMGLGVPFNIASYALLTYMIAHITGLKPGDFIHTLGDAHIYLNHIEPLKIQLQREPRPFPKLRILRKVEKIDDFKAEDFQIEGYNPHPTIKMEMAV
T1 sequence (P07607 whole entry): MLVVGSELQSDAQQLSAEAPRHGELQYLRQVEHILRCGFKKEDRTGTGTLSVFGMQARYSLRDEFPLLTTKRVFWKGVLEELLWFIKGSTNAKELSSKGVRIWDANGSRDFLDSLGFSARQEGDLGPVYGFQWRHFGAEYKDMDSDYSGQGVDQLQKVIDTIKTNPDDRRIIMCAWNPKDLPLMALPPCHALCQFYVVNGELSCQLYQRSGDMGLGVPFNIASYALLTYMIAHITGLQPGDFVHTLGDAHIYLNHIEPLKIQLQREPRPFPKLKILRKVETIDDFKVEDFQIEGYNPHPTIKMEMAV

## CC(=O)N[C@H]1[C@H](OCCCCCCNC(=O)CC[C@H](NC(=O)CC[C@H](NC(=O)[C@H](Cc2ccc(O)cc2)NC(=O)C2CCC(CN3C(=O)CC(SCCCCCCOP(=O)(O)OC[C@H]4O[C@@H](n5cc(F)c(=O)[nH]c5=O)C[C@@H]4O)C3=O)CC2)C(=O)NCCCCCCO[C@@H]2O[C@H](CO)[C@H](O)[C@H](O)[C@H]2NC(C)=O)C(=O)NCCCCCCO[C@@H]2O[C@H](CO)[C@H](O)[C@H](O)[C@H]2NC(C)=O)O[C@H](CO)[C@H](O)[C@@H]1O (stereo partly drawn) [po 1-mer, YEE(ahGalNAc)3-SMCC-poFU]
Hep G2 cells [1]; 1 μM, compared to untreated control, listed as po-linked conjugate
  inhibition of proliferation: 64%
Hep G2 cells [1]; in vitro proliferation of Hep G2 cells
  more active than the ps-linked conjugate: approximately 30%
TS [2]; weekly 10 mg/kg
  TS activity, COUNTS/MG PROTEIN: 19718 counts/mg protein
TS [2]; weekly 15 mg/kg
  TS activity, COUNTS/MG PROTEIN: 18989 counts/mg protein
[3]; 0 min
  Average Peak area: 17.78
[3]; 0 min, listed as po 1-mer Conjugate
  Trial Peak area: 17.65 and 17.92
[3]; 60 min
  Average Peak area: 13.77
[3]; 60 min, listed as po 1-mer Conjugate
  Trial Peak area: 15.11 and 12.43
[3]; 180 min
  Average Peak area: 10.17
[3]; 180 min, listed as po 1-mer Conjugate
  Trial Peak area: 9.356 and 10.9908
[3]; 360 min
  Average Peak area: 11.4
  Trial Peak area: 11.4
[3]; human, serum, HPLC (a), read-out: serum t1/2
  half-life at 480 µM: 9.62 h
TS [4]; weekly 10 mg/kg
  TS activity, COUNTS/MG PROTEIN: 17641 counts/mg protein
TS [4]; weekly 15 mg/kg
  TS activity, COUNTS/MG PROTEIN: 8591 counts/mg protein
[5]; 0 min
  Normalized Area: 0
  Pixel Area: 42.57
  Standardized Area: 1
[5]; 15 min
  Normalized Area: 0.1486
  Pixel Area: 57.43
  Standardized Area: 0.8514
[5]; 30 min
  Normalized Area: 0.2404
  Pixel Area: 66.61
  Standardized Area: 0.7596
[5]; 60 min
  Normalized Area: 0.3435
  Pixel Area: 76.92
  Standardized Area: 0.6565
[5]; 120 min
  Normalized Area: 0.39
  Pixel Area: 81.57
  Standardized Area: 0.61
[5]; 240 min
  Normalized Area: 0.3756
  Pixel Area: 80.13
  Standardized Area: 0.6244
Hep G2 cells [6]; 1 μM, 30 min
  cellular uptake: 5 pmoles/million cells
Hep G2 cells [6]; 1 μM, 480 min
  cellular uptake: 24.75 pmoles/10^6 cells
  cellular uptake (peak): 25 pmoles/million cells
Hep G2 cells [6]; 2 μM, 480 min
  cellular uptake: about 26 pmole/10^6 cells
Hep G2 cells [6]; 4 μM
  maximal cellular uptake: 36 pmoles/million cells
Hep G2 cells [6]; 4 μM, 480 min
  maximum cellular uptake: about 36 pmoles/10^6 cells
Hep G2 cells [6]; 8 μM
  maximal cellular uptake: 43 pmoles/million cells
Hep G2 cells [6]; 8 μM, 120 min
  cellular uptake: 35 pmoles/10^6 cells
Hep G2 cells [6]; 8 μM, 480 min
  maximum cellular uptake: ~42 pmoles/10^6 cells
